Laboratory results: patent publication US20210318338A1
Where “and” joins values, the source holds several entries; their conditions need not be identical. Equal entries are not always repeated. Where two headings read alike, the source gives them in different places.

Experiments:
Test in all cases: cell-based or functional assay
[1] = target: protein S (purified, free form) (UniProt P07225)
[2] = target: protein S (purified, free form) (UniProt P07225); remark: listed apart in the source
[3] = target: tissue factor pathway inhibitor alpha (TFPIα) (UniProt P10646)
UniProt P10646, sequence (P10646 29-304 limits assumed): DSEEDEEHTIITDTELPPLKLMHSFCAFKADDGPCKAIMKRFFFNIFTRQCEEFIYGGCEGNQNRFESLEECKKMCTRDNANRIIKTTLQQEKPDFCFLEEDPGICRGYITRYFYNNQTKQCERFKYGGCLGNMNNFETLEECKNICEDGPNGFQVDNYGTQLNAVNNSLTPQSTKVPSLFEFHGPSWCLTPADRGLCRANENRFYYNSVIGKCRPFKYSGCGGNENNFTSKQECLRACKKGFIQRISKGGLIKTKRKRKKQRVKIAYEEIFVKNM

loss of the TFPIα-cofactor activity of protein S in the FXa inhibition assay (S2765 absorbance; 5 nM protein S, 2 nM FV-Short, 0.25 nM TFPIα, 0.3 nM FXa) [1]	loss of the TFPIα-cofactor activity of protein S in the FXa inhibition assay (S2765 absorbance; 5 nM protein S, 2 nM FV-Short, 0.25 nM TFPIα, 0.3 nM FXa) [2]	inhibition of FXa by TFPIα (S2765 absorbance) with phospholipid vesicles and 2 nM FV-Short, protein S titrated [3]	inhibition of FXa by TFPIα (S2765 absorbance) without added FV-Short [3]	Molecule
6.25 nM	3.13 nM	–	–	C4b-binding protein (C4BP) without bound protein S (from UniProt P04003 49-597; P20851 18-252)
–	–	1.25 nM and 5 nM	> 10 nM	protein S (purified, free form) (protein, UniProt P07225 42-676, looked up, contains the modified amino acid gamma-carboxy glutamic acid (positions not given)) ANSLLEETKQGNLERECIEELCNKEEAREVFENDPETDYFYPKYLVCLRSFQTGLFTAARQSTNAYPDLRSCVNAIPDQCSPLPCNEDGYMSCKDGKASFTCTCKPGWQGEKCEFDINECKDPSNINGGCSQICDNTPGSYHCSCKNGFVMLSNKKDCKDVDECSLKPSICGTAVCKNIPGDFECECPEGYRYNLKSKSCEDIDECSENMCAQLCVNYPGGYTCYCDGKKGFKLAQDQKSCEVVSVCLPLNLDTKYELLYLAEQFAGVVLYLKFRLPEISRFSAEFDFRTYDSEGVILYAESIDHSAWLLIALRGGKIEVQLKNEHTSKITTGGDVINNGLWNMVSVEELEHSISIKIAKEAVMDINKPGPLFKPENGLLETKVYFAGFPRKVESELIKPINPRLDGCIRSWNLMKQGASGIKEIIQEKQNKHCLVTVEKGSYYPGSGIAQFHIDYNNVSSAEGWHVNVTLNIRPSTGTGVMLALVSGNNTVPFAVSLVDSTSEKSQDILLSVENTVIYRIQALSLCSDQQSHLEFRVNRNNLELSTPLKIETISHEDLQRQLAVLDKAMKAKVATYLGGLPDVPFSATPVNAFYNGCMEVNINGVQLDLDEAISKHNDIRAHSCPSVWKKTKNS
